Source: publication PMC10825657

Substrate: Cc1c(CC(=O)NCCCC[C@H](NC(=O)CCN)C(=O)O)c(=O)oc2cc(N)ccc12
Experiment: cells, lysate or membranes
Conditions: HBSS with 20 mM Hepes, 300 mOsmol/kg (control); fluorescent substrate 0-500 μM

B1: PepT2 (Oreochromis mossambicus) (protein)
chain: MGKKLFGTNYPVSICFIVVNEFCERFSYYGMKALLTLYFLNYLKWDKDLSTAVYHAFSGLCYFTPILGAFIADSWLGKYKTIIYLSIVYVIGHVVKSVGAIPTVGSTELHIALSMSGLILIALGTGGIKPCVAAFGGDQFGEEHITERQKFFSIFYMSINAGSFLSTIITPILRGDVQCFGGDCYALAFGVPAALMVVALVVFIAGSSLYKRTPPQGNILWEVCNCIGFALKNRWNKSKHDSPRQHWLDWAEEKYSMRLIQEIKMVLRVLVLYIPLPMFWALFDQQGSRWTLQATRMNLAFGNSFAIKPDQMQMLNALLILVFVPIFDLIIYPLVRLCGLKITPLRKMAVGMVFAALAFGAATLVEVNVVKTVVNPAPAGKCLLQVVNLAKGDVSLKAPGTDLFLQSIKYLEDPPGYETVPLSNGELNLEVTGVNGETFSATQKVEEKKAYSVIIYPDAAGITYTLVEDHITKNEDGNPLLRFLNTQPEALNVTVGDKNFYMSSGYNVTHNKTVQRGEYTHATCISNSGKTSKLNLGLLDFGACYTVILTEEAGEIVPHKIEDVKANNVHIAYQIPQYILITAGEVMFSITGLEFSYSQAPANMKSVLQAGWLLTVAFGNVIVLIVAEGAGLEQWIEFLLFACLLLGVCIIFSIMAHFYTYVDPEEMEKLYLENSVKEEDDSDFKKKNNEIQLNKTGKSTRM
B1 gave a Km of 178.78 ± 19.78 µM.
